The text below walks through data of PMC2787013, “DNA Specificity Determinants Associate with Distinct Transcription Factor Functions”.

Assay in all cases: EMSA; Protein 3-fold dilutions with 1e-11 (M) 32P-dsDNA, 30 min on ice, 6% polyacrylamide gel; binding buffer as in earlier paper (not given); protein dialysis buffer 10 mM Tris pH 7.9, 0.5 mM EDTA, 50 mM KCl, 1 mM DTT, 10% glycerol
Common to all, as to conditions: protein: recombinant; tags: N-terminal 6xHis (pET28a); label: 32P; (only one strand given)
On the technique in general: Mobility shift assays separate free from complexed probe on a gel.

For series [1], the target named is T1, ELF1 (human, UniProt P32519 1-619).
Series [2] has as its target T2, ETS1 (p51) (human, UniProt P14921 1-441).
T2 sequence: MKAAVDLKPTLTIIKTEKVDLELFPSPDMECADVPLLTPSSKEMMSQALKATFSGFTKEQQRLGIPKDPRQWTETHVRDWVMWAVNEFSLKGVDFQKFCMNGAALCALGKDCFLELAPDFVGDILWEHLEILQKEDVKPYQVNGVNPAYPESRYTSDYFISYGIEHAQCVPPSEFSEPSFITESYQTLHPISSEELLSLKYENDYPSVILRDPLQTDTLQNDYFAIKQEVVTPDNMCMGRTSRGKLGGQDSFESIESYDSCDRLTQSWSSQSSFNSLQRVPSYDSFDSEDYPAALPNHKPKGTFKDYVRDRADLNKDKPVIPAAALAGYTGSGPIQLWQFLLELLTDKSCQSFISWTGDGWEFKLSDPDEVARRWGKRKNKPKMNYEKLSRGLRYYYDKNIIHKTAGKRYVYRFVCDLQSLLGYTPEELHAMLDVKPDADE

In series [3] the target is T1, ELF1. This is another data set of the same source.
The target in series [4] is T2, ETS1 (p51). The source holds these as a separate data set.

T1 sequence (P32519 whole entry): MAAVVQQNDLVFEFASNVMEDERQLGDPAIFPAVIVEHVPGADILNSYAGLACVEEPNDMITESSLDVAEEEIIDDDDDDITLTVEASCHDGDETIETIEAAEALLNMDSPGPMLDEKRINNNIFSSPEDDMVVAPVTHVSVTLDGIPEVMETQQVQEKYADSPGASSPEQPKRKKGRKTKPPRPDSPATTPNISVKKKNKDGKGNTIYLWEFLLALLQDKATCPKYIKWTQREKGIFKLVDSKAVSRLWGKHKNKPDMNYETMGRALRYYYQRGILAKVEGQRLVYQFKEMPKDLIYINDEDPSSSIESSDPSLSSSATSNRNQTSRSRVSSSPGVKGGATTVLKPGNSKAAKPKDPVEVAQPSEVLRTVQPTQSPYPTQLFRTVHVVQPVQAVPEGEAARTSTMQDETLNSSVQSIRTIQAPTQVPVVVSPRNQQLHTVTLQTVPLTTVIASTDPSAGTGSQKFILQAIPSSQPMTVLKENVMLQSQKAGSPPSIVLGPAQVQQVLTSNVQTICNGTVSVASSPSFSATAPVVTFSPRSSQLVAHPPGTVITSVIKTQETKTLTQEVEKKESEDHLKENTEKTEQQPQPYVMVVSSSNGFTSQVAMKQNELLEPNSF

B1: ETS consensus CCGGAAGT (dsDNA)
DNA 1: GGCCAAGCCGGAAGTGTGTGGTAAACACTTT
DNA 2: AAAGTGTTTACCACACACTTCCGGCTTGGCC
With B1, the Kd with ELF1 [1] worked out at 0.17 nM; with ETS1 (p51) [2], 1.7 nM.

B2: A to T variant CCGGATGT (dsDNA)
DNA 1: GGCCAAGCCGGATGTGTGTGGTAAACACTTT
DNA 2: AAAGTGTTTACCACACACATCCGGCTTGGCC
Turning to B2, the binding signal with ELF1 [3] was 3.6 fold decrease in affinity vs N1; in the series with ETS1 (p51) [4], 1 fold decrease in affinity vs N1.

B3: double variant CAGGATGT (dsDNA)
DNA 1: GGCCAAGCAGGATGTGTGTGGTAAACACTTT
DNA 2: AAAGTGTTTACCACACACATCCTGCTTGGCC
Turning to B3, the binding signal is 18.3 fold decrease in affinity vs N1 with ELF1 [3] and 2.4 fold decrease in affinity vs N1 in the series with ETS1 (p51) [4].

B4: C to A variant CAGGAAGT (dsDNA)
DNA 1: GGCCAAGCAGGAAGTGTGTGGTAAACACTTT
DNA 2: AAAGTGTTTACCACACACTTCCTGCTTGGCC
In the case of B4, the figures for the binding signal with ELF1 [3] and with ETS1 (p51) [4] were 1.9 fold decrease in affinity vs N1 and 1.5 fold decrease in affinity vs N1, respectively.

By Kd is commonly meant the constant that tells how readily two partners part at equilibrium.
